Measured values from patent US20230257458A1 (SUNSHINE LAKE PHARMA, published 2023).

Legend:
[1] = biological target: recombinant IL-6 (Sinobiological-10395-HNAE) (UniProt P05231 30-212); assay: ELISA, cytokine coated
[2] = biological target: T1, recombinant CNTF (R&D systems, 257-NT-010) (UniProt P26441 2-200); assay: ELISA, cytokine coated
T1 sequence (looked up): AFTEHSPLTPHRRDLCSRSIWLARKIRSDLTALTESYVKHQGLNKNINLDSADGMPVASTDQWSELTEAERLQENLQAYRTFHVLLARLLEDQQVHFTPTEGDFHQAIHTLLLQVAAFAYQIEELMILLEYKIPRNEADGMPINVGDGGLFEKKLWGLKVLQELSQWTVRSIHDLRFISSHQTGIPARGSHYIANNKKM

[3] = biological target: T2, recombinant CLC (R&D systems, 962-CL-050) (UniProt Q9UBD9 28-225); assay: ELISA, cytokine coated
T2 sequence (looked up): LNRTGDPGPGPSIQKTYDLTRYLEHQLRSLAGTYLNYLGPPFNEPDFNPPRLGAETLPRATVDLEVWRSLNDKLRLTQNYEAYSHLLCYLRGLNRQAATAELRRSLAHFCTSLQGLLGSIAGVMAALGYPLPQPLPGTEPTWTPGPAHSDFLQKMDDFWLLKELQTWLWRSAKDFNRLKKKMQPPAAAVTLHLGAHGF

[4] = biological target: recombinant LIF (Peprotech, 300-05) (UniProt P15018 23-202); assay: ELISA, cytokine coated
recombinant LIF (Peprotech, 300-05), sequence (P15018 23-202 limits assumed): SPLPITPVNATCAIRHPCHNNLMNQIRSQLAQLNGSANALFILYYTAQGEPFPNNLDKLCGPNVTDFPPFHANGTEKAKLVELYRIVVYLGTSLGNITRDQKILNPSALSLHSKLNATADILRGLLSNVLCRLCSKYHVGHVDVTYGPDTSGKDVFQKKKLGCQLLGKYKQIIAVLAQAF

[5] = biological target: T3, recombinant OSM (Genscript-z03132) (UniProt P13725 26-234, limits assumed); assay: ELISA, cytokine coated
T3 sequence (looked up): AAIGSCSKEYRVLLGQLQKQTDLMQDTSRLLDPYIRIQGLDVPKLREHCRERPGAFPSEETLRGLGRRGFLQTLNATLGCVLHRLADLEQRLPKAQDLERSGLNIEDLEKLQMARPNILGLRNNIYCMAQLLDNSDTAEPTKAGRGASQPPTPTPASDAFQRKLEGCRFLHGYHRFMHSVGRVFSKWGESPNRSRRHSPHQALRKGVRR

[6] = biological target: T4, recombinant IL-31 (Peprotech, 200-31) (UniProt Q6EBC2 24-164); assay: ELISA, cytokine coated
T4 sequence (looked up): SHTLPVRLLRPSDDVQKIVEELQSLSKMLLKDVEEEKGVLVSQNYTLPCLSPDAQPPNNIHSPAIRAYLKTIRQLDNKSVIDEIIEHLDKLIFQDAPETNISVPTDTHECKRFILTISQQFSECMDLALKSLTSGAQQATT

[7] = biological target: T5, recombinant IL-11 (LSBio, LS-G132887-10) (UniProt P20809 22-199); assay: ELISA, cytokine coated
T5 construct: also called IL-11 cytokine
T5 sequence (looked up): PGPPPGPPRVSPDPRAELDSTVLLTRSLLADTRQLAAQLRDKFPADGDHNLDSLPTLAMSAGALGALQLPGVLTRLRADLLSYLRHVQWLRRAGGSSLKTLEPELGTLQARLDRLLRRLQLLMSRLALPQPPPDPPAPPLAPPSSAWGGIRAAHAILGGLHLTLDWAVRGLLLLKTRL

[8] = biological target: T6, recombinant CT-1 (R&D systems, 612-CD-010) (UniProt Q16619 2-201, limits assumed); assay: ELISA, cytokine coated
T6 sequence (looked up): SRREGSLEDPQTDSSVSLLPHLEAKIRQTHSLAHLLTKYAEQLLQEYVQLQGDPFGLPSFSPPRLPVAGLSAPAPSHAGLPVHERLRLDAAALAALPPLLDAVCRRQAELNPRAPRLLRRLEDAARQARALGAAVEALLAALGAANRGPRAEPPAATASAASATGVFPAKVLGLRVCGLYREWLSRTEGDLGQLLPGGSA

[9] = biological target: T7, recombinant IL-27 (R&D systems, 2526-IL-010) (UniProt Q8NEV9 29-243; Q14213 21-229); assay: ELISA, cytokine coated
T7 sequence (looked up) 1: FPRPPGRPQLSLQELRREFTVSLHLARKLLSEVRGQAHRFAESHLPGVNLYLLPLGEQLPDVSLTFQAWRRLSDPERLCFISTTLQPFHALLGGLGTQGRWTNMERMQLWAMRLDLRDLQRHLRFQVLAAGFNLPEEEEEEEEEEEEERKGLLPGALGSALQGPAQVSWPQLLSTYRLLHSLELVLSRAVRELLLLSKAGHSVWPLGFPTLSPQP
T7 sequence (looked up) 2: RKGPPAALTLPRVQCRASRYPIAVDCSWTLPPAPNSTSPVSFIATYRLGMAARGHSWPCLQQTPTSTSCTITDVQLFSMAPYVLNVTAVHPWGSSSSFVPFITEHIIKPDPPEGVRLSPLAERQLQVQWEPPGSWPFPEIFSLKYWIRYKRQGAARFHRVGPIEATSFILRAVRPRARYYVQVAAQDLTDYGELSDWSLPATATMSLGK

IL-11 protein [10] = biological target: T8, IL-11 protein (UniProt P20809 22-199, limits assumed); assay: flow competition: IL-11 + antibody on IL-11R cells; lower = more blocking
T8 construct: also called IL-11 antigen
T8 sequence (looked up): T5 sequence (looked up)
Source text: Cell lines with high secretion of specific antibody were selected for expanded culture and cryopreservation.

IL-11-Fc protein = biological target: T9, IL-11-Fc protein (UniProt P20809 22-199, limits assumed); assay: flow competition: IL-11-Fc + antibody gradient on membrane-IL-11R CHO cells; 5-20E11-5F2 antibody
T9 construct: also called IL-11 recombinant protein with Fc tag; not shown: Fc tag
T9 sequence (looked up): T5 sequence (looked up)
Source text: The secondary antibody used in the detection was a secondary antibody conjugated with a FITC fluorophore (Goat-anti-Fc-FITC) (Abcam, ab98529).

IL-11 protein [11] = biological target: T8, IL-11 protein; assay: SPR (Biacore), IgG captured, IL-11 6.25-400 nM as analyte
Description: The measure method included the steps of capturing the humanized antibody at a flow rate of 10 ul/min. […] Finally the chip was regenerated with 10 mM glycine buffer.

B1: 5-20E11-5F2 (antibody, human IgG1, kappa, V domains shown)
VH: QVQLQQSGAELVRPGTSAKISCKASDYTFTNYWLGWLKQRPGHGLEWIGHIYPGGGYTNYNEKFKGKATLTADTSSSTAYMQLSSLTSEDSAVYFCARVRSGNDALDFWGQGTSVTVSS
VL: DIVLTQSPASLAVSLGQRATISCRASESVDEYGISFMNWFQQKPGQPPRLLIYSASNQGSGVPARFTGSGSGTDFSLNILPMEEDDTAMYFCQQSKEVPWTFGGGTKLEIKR
notes: also called 5-20E11-5F2 antibody; 5-20E11-5F2 mAb
- OD450 nm [1]: 0.049
- OD450 nm [2]: 0.036
- OD450 nm [3]: 0.033
- OD450 nm [4]: 0.037
- OD450 nm [5]: 0.045
- OD450 nm [6]: 0.036
- OD450 nm [7]: 1.93
- OD450 nm [8]: 0.034
- OD450 nm [9]: 0.048
- FITC Mean (IL-11 protein [10]): 3110
- IC50 (IL-11-Fc protein): ~21 µg/mL
- Kd (IL-11 protein [11]): 6.41 nM
- koff (IL-11 protein [11]): 0.000433 s⁻¹
- kon (IL-11 protein [11]): 67600 M⁻¹ s⁻¹
